Measurements as given in patent publication US20240294635A1.

How the values were obtained:
[1] = biological target: CD47 on the red cell surface (Homo sapiens (Human)) (UniProt Q08722); assay: flow cytometry on fixed red cells, antibody 10 µg/mL
[2] = biological target: CD47 on the red cell surface (Homo sapiens (Human)) (UniProt Q08722); assay: flow cytometry on fixed red cells, antibody 1 µg/mL

- MFI [1]: 484 MFI
- MFI [2]: 449 MFI
Substance: IgG4 (antibody)
